From patent US20260091143A1, “NEAR-INFRARED IMAGING AGENT AND USES THEREOF” (CASE WESTERN RESERVE UNIVERSITY, priority 2022, published 2026)
Where a SMILES comes first, the peptide text is derived from it. Where no end group is shown, it is not given here. The star is where a group is joined. X1 = CC1(C)C(/C=C/C=C/C=C/C=C2/N(CCCCCC(=O)*)c3ccc4ccccc4c3C2(C)C)=[N+](CCCCS(=O)(=O)[O-])c2ccc3ccccc3c21; Tide Fluor 8WS = fluorophore acid, coupled by amide to the N-terminal amine

Legend:
[1] = Whole-body and ventral fluorescent imaging of biodistribution and clearance; assay type: in vivo, mice
Description: (§1) The IVIS Spectrum In vivo Imaging System and Living Image analysis software, (Perkin Elmer, Hopkinton, MA, USA) were used for acquisition and analysis of mouse images. Prior to the experiment, mice were weighed, and baseline images acquired using the appropriate filter sets and the autoexposure setting. Three filter sets for excitation/emission were used: 745 nm/800 nm, 745 nm/820 nm, 745 nm/840 nm. The filter set showing highest fluorescence intensity for a fluorophore was used throughout for that dye. For ICG, 745 nm/820 nm was used and for IRDye® 800CW and Tide Fluor™ 8WS, 745 nm/800 nm was used. Agent stocks were diluted in saline or PBS to ˜100 μM and the volume needed for the desired dose of 300 nmol/kg or 400 nmol/kg calculated. Doses were loaded into polyurethane tubing and connected to a 1 mL syringe as previously described. Mice were anesthetized in an induction chamber with 2% isoflurane-oxygen and moved onto a 37° C. heated platform with a nose cone. 26-gauge veterinary catheters were placed in each tail and the preloaded tubing was connected. Agents were injected over 30 sec, catheters were removed, and animals placed in the prepared Spectrum imaging chamber. Images were acquired beginning 10 min after injecting the agents. For SBK2-CCLE-IR800 and Scram-CCLE-IR800, images were acquired every 10 min for 60 min. For the ICG-labeled and TF8WS-labeled peptides, images were acquired at 10 min, 30 min, 1 h, 2 h, 4 h, 8 h, and 24 h. At the end of the imaging time, the animals were euthanized by CO2 asphyxiation, and the tumor and other organs excised and imaged on the Spectrum.

[2] = Ex vivo fluorescence in excised kidneys, spleen and liver; design: species or system mice; details: 24 h; for p-value, average radiant efficiency of excised kidney vs SBK2-ICG / p-value, average radiant efficiency of excised kidney vs Scram-CLE-ICG / p-value, average radiant efficiency of excised kidney vs Scram-ICG / p-value, average radiant efficiency of excised liver vs SBK2-ICG / p-value, average radiant efficiency of excised liver vs Scram-CLE-ICG / p-value, average radiant efficiency of excised liver vs Scram-ICG / p-value, average radiant efficiency of excised spleen vs SBK2-ICG / p-value, average radiant efficiency of excised spleen vs Scram-CLE-ICG / p-value, average radiant efficiency of excised spleen vs Scram-ICG / p-value, average radiant efficiency of excised kidney vs SBK2-CLE-ICG / p-value, average radiant efficiency of excised liver vs SBK2-CLE-ICG / p-value, average radiant efficiency of excised spleen vs SBK2-CLE-ICG: ICG-labeled agents 300 nmol/kg, ICG 400 nmol/kg, Welch's t-test
Description: as §1
(§2) Living Image analysis software was used for region of interest (ROI) analysis of the optical data. Images acquired for each time point consist of a fluorescent image superimposed on a photographic image. Binning was set to 1 and in vivo tumor ROIs were manually drawn based on contours visible in the black and white photograph for each timepoint. After outlining the tumor ROIs, fluorescence was measured with the built-in Spectrum function. For excised tumors, kidneys, spleen and liver, ROIs were drawn around the perimeter of the tumor or organ.
(§3) LivingImage software measures fluorescence intensity in units of radiant efficiency. For these analyses, average radiant efficiency measurements in (photons/s/cm^2/steradian)/(μW/cm^2) were used for further comparisons to account for differences in tumor and organ size. GraphPad Prism 9 was used for plots and statistical analyses. Where indicated, means for pairs of agents were compared using a two-tailed t-test with Welch's correction and statistical significance was assumed at p<0.05. Welch's correction was used to eliminate assumptions about variance between the groups being compared.

[3] = tested on: LN-229 glioma flank tumor; assay: In vivo fluorescent imaging of tumor signal in LN-229 flank tumor-bearing nude mice; details: 400 nmol/kg
Description: All applicable institutional and/or NIH guidelines for the care and use of animals were followed. The Case Western Reserve University Institutional Animal Care and Use Committee reviewed and approved the animal protocols. Outbred homozygous female nude mice (Fox1^nu/Fox1^nu) were purchased from Jackson Laboratory, Bar Harbor, ME, USA. Details of the human glioblastoma LN-229 cell line have been described previously. LN-229 cells express the PTPμ biomarker and have been used in previous studies for evaluating PTPμ-targeted agents using different imaging modalities. Flank tumors were started in the right flank of mice at approximately 7 weeks of age by injecting a mixture of 2×10^6 cells and Matrigel® Matrix (Corning®, Corning Inc., Corning, NY, USA). Experiments were performed in mice 4 to 8 weeks after implanting the tumors.
as §1, §2, §3

Compound | p-value, average radiant efficiency of excised kidney vs SBK2-ICG [2] | p-value, average radiant efficiency of excised kidney vs Scram-CLE-ICG [2] | p-value, average radiant efficiency of excised kidney vs Scram-ICG [2] | p-value, average radiant efficiency of excised liver vs SBK2-ICG [2] | p-value, average radiant efficiency of excised liver vs Scram-CLE-ICG [2] | p-value, average radiant efficiency of excised liver vs Scram-ICG [2] | p-value, average radiant efficiency of excised spleen vs SBK2-ICG [2] | p-value, average radiant efficiency of excised spleen vs Scram-CLE-ICG [2] | p-value, average radiant efficiency of excised spleen vs Scram-ICG [2] | p-value, average radiant efficiency of excised kidney vs SBK2-CLE-ICG [2] | p-value, average radiant efficiency of excised liver vs SBK2-CLE-ICG [2] | p-value, average radiant efficiency of excised spleen vs SBK2-CLE-ICG [2] | further results
CC1(C)C(=CC=C2CCCC(C=CC3=[N+](CCCCCC(=O)[O-])c4ccc(S(=O)(=O)[O-])cc4C3(C)C)=C2Oc2ccc(S(=O)(=O)[O-])cc2)N(CCCCS(=O)(=O)[O-])c2ccc(S(=O)(=O)[O-])cc21.[Na+].[Na+].[Na+].[Na+] [IRDye® 800CW] |  |  |  |  |  |  |  |  |  |  |  |  | clearance compared to the peptide-containing agents ([1]; dye only, data not shown): cleared more slowly; overall body fluorescence compared to IRDye 800CW-labeled peptides at the same dose ([1]; dye only, data not shown): more overall fluorescence throughout the body
CC(C)C[C@H](NC(=O)[C@@H](NC(=O)[C@H](CC(N)=O)NC(=O)[C@@H](NC(=O)[C@H](CCC(N)=O)NC(=O)[C@H](CCC(=O)O)NC(=O)[C@H](Cc1c[nH]c2ccccc12)NC(=O)[C@H](CC(N)=O)NC(=O)[C@H](Cc1ccccc1)NC(=O)[C@H](CC(=O)O)NC(=O)[C@H](CC(=O)O)NC(=O)CNC(=O)[C@H](CCC(=O)O)NC(=O)CNC(=O)[C@H](CO)NC(=O)CNC(=O)CNC(=O)[C@H](CO)NC(=O)CNC(=O)CNC(=O)CCCCCN1/C(=C/C=C/C=C/C=C/C2=[N+](CCCCS(=O)(=O)[O-])c3ccc4ccccc4c3C2(C)C)C(C)(C)c2c1ccc1ccccc21)C(C)C)[C@@H](C)O)C(=O)N[C@H](C(=O)N[C@@H](CCCCN)C(=O)N1CCC[C@H]1C(=O)N[C@H](C(=O)N[C@@H](CO)C(=O)N[C@@H](CC(=O)O)C(=O)O)[C@@H](C)O)[C@@H](C)O [SBK2-CLE-ICG] (X1-GGSGGSGEGDDFNWEQVNTLTKPTSD-OH) | <0.001 | 0.034 | ns | <0.001 | ns | ns | <0.001 | 0.015 | ns |  |  |  | clearance compared to SBK2-ICG ([1]; mouse, in vivo): cleared more rapidly
CC(C)C[C@H](NC(=O)[C@@H](NC(=O)[C@H](CC(N)=O)NC(=O)[C@@H](NC(=O)[C@H](CCC(N)=O)NC(=O)[C@H](CCC(=O)O)NC(=O)[C@H](Cc1c[nH]c2ccccc12)NC(=O)[C@H](CC(N)=O)NC(=O)[C@H](Cc1ccccc1)NC(=O)[C@H](CC(=O)O)NC(=O)[C@H](CC(=O)O)NC(=O)CNC(=O)[C@H](CCC(=O)O)NC(=O)CNC(=O)CCCCCN1/C(=C/C=C/C=C/C=C/C2=[N+](CCCCS(=O)(=O)[O-])c3ccc4ccccc4c3C2(C)C)C(C)(C)c2c1ccc1ccccc21)C(C)C)[C@@H](C)O)C(=O)N[C@H](C(=O)N[C@@H](CCCCN)C(=O)N1CCC[C@H]1C(=O)N[C@H](C(=O)N[C@@H](CO)C(=O)N[C@@H](CC(=O)O)C(=O)O)[C@@H](C)O)[C@@H](C)O [SBK2-ICG] (X1-GEGDDFNWEQVNTLTKPTSD-OH) |  | <0.001 | <0.001 |  | <0.001 | <0.001 |  | <0.001 | <0.001 | <0.001 | <0.001 | <0.001 | 
CC(C)C[C@H](NC(=O)[C@H](CC(=O)O)NC(=O)[C@H](CC(N)=O)NC(=O)[C@H](CC(=O)O)NC(=O)[C@@H](NC(=O)CNC(=O)[C@@H](NC(=O)[C@H](CCC(=O)O)NC(=O)[C@@H]1CCCN1C(=O)[C@H](CCC(N)=O)NC(=O)[C@@H](NC(=O)[C@H](Cc1ccccc1)NC(=O)CNC(=O)[C@H](CO)NC(=O)CNC(=O)CNC(=O)[C@H](CO)NC(=O)CNC(=O)CNC(=O)CCCCCN1/C(=C/C=C/C=C/C=C/C2=[N+](CCCCS(=O)(=O)[O-])c3ccc4ccccc4c3C2(C)C)C(C)(C)c2c1ccc1ccccc21)[C@@H](C)O)[C@@H](C)O)[C@@H](C)O)C(=O)N[C@@H](Cc1c[nH]c2ccccc12)C(=O)N[C@@H](CO)C(=O)N[C@H](C(=O)N[C@@H](CC(=O)O)C(=O)N[C@@H](CC(N)=O)C(=O)N[C@@H](CCC(=O)O)C(=O)N[C@@H](CCCCN)C(=O)O)C(C)C [Scram-CLE-ICG] (X1-GGSGGSGFTQPETGTDNDLWSVDNEK-OH) | <0.001 |  | ns | <0.001 |  | ns | <0.001 |  | ns | 0.034 | ns | 0.015 | 
CC(C)C[C@H](NC(=O)[C@H](CC(=O)O)NC(=O)[C@H](CC(N)=O)NC(=O)[C@H](CC(=O)O)NC(=O)[C@@H](NC(=O)CNC(=O)[C@@H](NC(=O)[C@H](CCC(=O)O)NC(=O)[C@@H]1CCCN1C(=O)[C@H](CCC(N)=O)NC(=O)[C@@H](NC(=O)[C@H](Cc1ccccc1)NC(=O)CNC(=O)CCCCCN1/C(=C/C=C/C=C/C=C/C2=[N+](CCCCS(=O)(=O)[O-])c3ccc4ccccc4c3C2(C)C)C(C)(C)c2c1ccc1ccccc21)[C@@H](C)O)[C@@H](C)O)[C@@H](C)O)C(=O)N[C@@H](Cc1c[nH]c2ccccc12)C(=O)N[C@@H](CO)C(=O)N[C@H](C(=O)N[C@@H](CC(=O)O)C(=O)N[C@@H](CC(N)=O)C(=O)N[C@@H](CCC(=O)O)C(=O)N[C@@H](CCCCN)C(=O)O)C(C)C [Scram-ICG] (X1-GFTQPETGTDNDLWSVDNEK-OH) | <0.001 | ns |  | <0.001 | ns |  | <0.001 | ns |  | ns | ns | ns | clearance compared to either of the CLE-containing agents ([1]; 400 nmol/kg, 24 h): clear more slowly
SBK2-TF8WS: Tide Fluor 8WS conjugated via amide to N-terminus of SBK2 peptide (SEQ ID NO: 5) ({Tide Fluor 8WS}-GEGDDFNWEQVNTLTKPTSD) |  |  |  |  |  |  |  |  |  |  |  |  | difference in average radiant efficiency in kidney, spleen, or liver vs Scram-TF8WS ([2]; 400 nmol/kg): no significant differences; tumor signal at 24 h (not specific for PTPμ) [3]: high tumor-specific signal; difference in in vivo tumor average radiant efficiency vs Scram-TF8WS ([3]; at any time out to 24 h): No significant differences; specific tumor labeling ([3]; versus Scrambled control agents): no specific tumor labeling
Scram-TF8WS: Tide Fluor 8WS conjugated to N-terminus of Scrambled control peptide (SEQ ID NO: 48) ({Tide Fluor 8WS}-GFTQPETGTDNDLWSVDNEK) |  |  |  |  |  |  |  |  |  |  |  |  | tumor signal at 24 h (not specific for PTPμ) [3]: high tumor-specific signal
